{"source": "paper doi:10.1101/2020.12.03.410779", "about": "(bioRxiv, 2020)", "target": "PDZ domain of mouse SNX27 (mouse, UniProt Q3UHD6 41-134)", "assay": "ITC"}
{"binder": "QEEWETVM", "note": "[PTHR_(586-593) cargo peptide]", "values": [{"measurement": "Kd", "result": 700, "unit": "nM"}]}
